A word on the stoichiometry N: it is the number of molecules, sites or subunits per partner or assembly.

From paper PMC11784077 come the findings set out here.

Assay in all cases: non-reducing gel electrophoresis with western blot (trimerization assay); BmN cells expressing GP64 or CARC mutants harvested, lysed in PBS (pH 7.4), separated on 10% nonreducing polyacrylamide gel, blotted with anti-GP64 (AcV5)
On the technique in general: Immunoblotting shows a protein as a band on a membrane.

The target in assay [1] is BmNPV GP64 (wild type, signal peptide retained) (Bombyx mori nucleopolyhedrovirus (BmNPV)) (UniProt P41722).
Assay [2] deals with BmNPV GP64 F235A (CARC5 mutant) (Bombyx mori nucleopolyhedrovirus (BmNPV)) (UniProt P41722).
Assay [3] concerns the target BmNPV GP64 W154A (CARC2 mutant) (Bombyx mori nucleopolyhedrovirus (BmNPV)) (UniProt P41722).
The target of assay [4] is BmNPV GP64 W178A (CARC3 mutant) (Bombyx mori nucleopolyhedrovirus (BmNPV)) (UniProt P41722).
Assay [5] has as its target BmNPV GP64 W299A (CARC6 mutant) (Bombyx mori nucleopolyhedrovirus (BmNPV)) (UniProt P41722).
For assay [6], the target named is BmNPV GP64 Y49A (CARC1 mutant) (Bombyx mori nucleopolyhedrovirus (BmNPV)) (UniProt P41722).
For assay [7], the target named is BmNPV GP64 Y188A (CARC4 mutant) (Bombyx mori nucleopolyhedrovirus (BmNPV)) (UniProt P41722).

As for “BmNPV GP64 (wild type, signal peptide retained) (from UniProt P41722 1-37) (natural protein)”, in assay [1], the stoichiometry N came to 3.

“BmNPV GP64 F235A (CARC5 mutant) (from UniProt P41722 1-37) (natural protein)” gave a stoichiometry N in assay [2] of 3.

In assay [3], “BmNPV GP64 W154A (CARC2 mutant) (from UniProt P41722 1-37) (natural protein)” yielded a stoichiometry N of 3.

“BmNPV GP64 W178A (CARC3 mutant) (from UniProt P41722 1-37) (natural protein)” gave a stoichiometry N in assay [4] of 3.

On to “BmNPV GP64 W299A (CARC6 mutant) (from UniProt P41722 1-37) (natural protein)”, for which the stoichiometry N in assay [5] was 3.

In assay [6], “BmNPV GP64 Y49A (CARC1 mutant) (from UniProt P41722 1-37) (natural protein)” yielded a stoichiometry N of 3.

The substance “BmNPV GP64 Y188A (CARC4 mutant) (from UniProt P41722 1-37) (natural protein)” yielded a stoichiometry N in assay [7] of 3.
